Source: publication PMC4242082, “Mechanistic determinants of the directionality and energetics of active export by a heterodimeric ABC transporter” (Nature Communications, 2014)
Ends that are not written are not given here.

B1: rat TAP1-NBD Walker B mutant (D645N) (domain or fragment)
chain: SPLSGSLAPLNMKGLVKFQDVSFAYPNHPNVQVLQGLTFTLYPGKVTALVGPNGSGKSTVAALLQNLYQPTGGKVLLDGEPLVQYDHHYLHTQVAAVGQEPLLFGRSFRENIAYGLTRTPTMEEITAVAMESGAHDFISGFPQGYDTEVGETGNQLSGGQRQAVALARALIRKPRLLILDNATSALDAGNQLRVQRLLYESPEWASRTVLLITQQLSLAERAHHILFLKEGSVCEQGTHLQLMERGGCYRSMVEALAAPSD
notes: Model system for NBD homodimerisation; also called Walker B D645N; hydrolysis-deficient Walker B mutant; source: E. coli BL21(DE3), purified (Ni-NTA, Superdex200)
B2: rat TAP1-NBD Walker B/D-loop double mutant (D645N/D651A) (domain or fragment)
chain: SPLSGSLAPLNMKGLVKFQDVSFAYPNHPNVQVLQGLTFTLYPGKVTALVGPNGSGKSTVAALLQNLYQPTGGKVLLDGEPLVQYDHHYLHTQVAAVGQEPLLFGRSFRENIAYGLTRTPTMEEITAVAMESGAHDFISGFPQGYDTEVGETGNQLSGGQRQAVALARALIRKPRLLILDNATSALAAGNQLRVQRLLYESPEWASRTVLLITQQLSLAERAHHILFLKEGSVCEQGTHLQLMERGGCYRSMVEALAAPSD
notes: D651A of rat TAP1 is equivalent to D674A of human TAP1; also called Walker B D645N/D-loop D651A; rat TAP1 NBD D645N/D651A; source: E. coli BL21(DE3), purified (Ni-NTA, Superdex200)
B3: Atto633-labelled peptide RRYC(AT633)KSTEL (peptide)
peptide: RRYC(Atto633)KSTEL
B4: TAP (TAP1/TAP2 complex; wt TAP) (Homo sapiens) (protein)
chain 1: MASSRCPAPRGCRCLPGASLAWLGTVLLLLADWVLLRTALPRIFSLLVPTALPLLRVWAVGLSRWAVLWLGACGVLRATVGSKSENAGAQGWLAALKPLAAALGLALPGLALFRELISWGAPGSADSTRLLHWGSHPTAFVVSYAAALPAAALWHKLGSLWVPGGQGGSGNPVRRLLGCLGSETRRLSLFLVLVVLSSLGEMAIPFFTGRLTDWILQDGSADTFTRNLTLMSILTIASAVLEFVGDGIYNNTMGHVHSHLQGEVFGAVLRQETEFFQQNQTGNIMSRVTEDTSTLSDSLSENLSLFLWYLVRGLCLLGIMLWGSVSLTMVTLITLPLLFLLPKKVGKWYQLLEVQVRESLAKSSQVAIEALSAMPTVRSFANEEGEAQKFREKLQEIKTLNQKEAVAYAVNSWTTSISGMLLKVGILYIGGQLVTSGAVSSGNLVTFVLYQMQFTQAVEVLLSIYPRVQKAVGSSEKIFEYLDRTPRCPPSGLLTPLHLEGLVQFQDVSFAYPNRPDVLVLQGLTFTLRPGEVTALVGPNGSGKSTVAALLQNLYQPTGGQLLLDGKPLPQYEHRYLHRQVAAVGQEPQVFGRSLQENIAYGLTQKPTMEEITAAAVKSGAHSFISGLPQGYDTEVDEAGSQLSGGQRQAVALARALIRKPCVLILDDATSALDANSQLQVEQLLYESPERYSRSVLLITQHLSLVEQADHILFLEGGAIREGGTHQQLMEKKGCYWAMVQAPADAPE
chain 2: MRLPDLRPWTSLLLVDAALLWLLQGPLGTLLPQGLPGLWLEGTLRLGGLWGLLKLRGLLGFVGTLLLPLCLATPLTVSLRALVAGASRAPPARVASAPWSWLLVGYGAAGLSWSLWAVLSPPGAQEKEQDQVNNKVLMWRLLKLSRPDLPLLVAAFFFLVLAVLGETLIPHYSGRVIDILGGDFDPHAFASAIFFMCLFSFGSSLSAGCRGGCFTYTMSRINLRIREQLFSSLLRQDLGFFQETKTGELNSRLSSDTTLMSNWLPLNANVLLRSLVKVVGLYGFMLSISPRLTLLSLLHMPFTIAAEKVYNTRHQEVLREIQDAVARAGQVVREAVGGLQTVRSFGAEEHEVCRYKEALEQCRQLYWRRDLERALYLLVRRVLHLGVQMLMLSCGLQQMQDGELTQGSLLSFMIYQESVGSYVQTLVYIYGDMLSNVGAAEKVFSYMDRQPNLPSPGTLAPTTLQGVVKFQDVSFAYPNRPDRPVLKGLTFTLRPGEVTALVGPNGSGKSTVAALLQNLYQPTGGQVLLDEKPISQYEHCYLHSQVVSVGQEPVLFSGSVRNNIAYGLQSCEDDKVMAAAQAAHADDFIQEMEHGIYTDVGEKGSQLAAGQKQRLAIARALVRDPRVLILDEATSALDVQCEQALQDWNSRGDRTVLVIAHRLQTVQRAHQILVLQEGKLQKLAQL
notes: full-length heterodimer from Sf9 insect cells (baculovirus), purified and reconstituted in proteoliposomes, or in membranes

What was measured:
P36370 [1] = experiment: AUC; sedimentation velocity, with ADP; 33 μM protein, 40,000 r.p.m., 10 °C, 14 h; 20 mM Tris pH 8.0, 50 mM NaCl, 5 mM MgCl2; c(S) model (Sedfit)
[2] = molecular target: the molecule itself; experiment: AUC; sedimentation equilibrium, with ADP; 12,000, 15,000 and 22,000 r.p.m., 10 °C; 3, 11 and 33 μM protein; 20 mM Tris pH 8.0, 50 mM NaCl, 5 mM MgCl2; monomer-dimer self-association model (SedPhat); dimer to monomers
[3] = molecular target: the molecule itself; experiment: AUC; sedimentation equilibrium, with ATP; 12,000, 15,000 and 22,000 r.p.m., 10 °C; 3, 11 and 33 μM protein; 20 mM Tris pH 8.0, 50 mM NaCl, 5 mM MgCl2; monomer-dimer self-association model (SedPhat); dimer to monomers
P36370 [4] = experiment: AUC; sedimentation velocity, with ATP; 33 μM protein, 40,000 r.p.m., 10 °C, 14 h; 20 mM Tris pH 8.0, 50 mM NaCl, 5 mM MgCl2; c(S) model (Sedfit)
[5] = molecular target: the molecule itself; experiment: as above
[6] = molecular target: wild-type TAP (human TAP1/TAP2 complex) (human) (UniProt Q03518)
[7] = molecular target: D674A/wt TAP complex (human TAP1 D674A with wt TAP2) (human) (UniProt Q03519)
[8] = substrate: Nc1ncnc2c1ncn2[C@@H]1O[C@H](COP(=O)(O)OP(=O)(O)OP(=O)(O)O)[C@@H](O)[C@H]1O; experiment: ATP-dependent transport of RRYC(FL488)KSTEL in proteoliposomes; type: biochemical, Homo sapiens; settings: peptide 1 μM, Mg2+, pH 7.4, 37 °C
Excerpt: ATP-dependent transport of RRYC(FL488)KSTEL in proteoliposomes on TAP (TAP1/TAP2 complex; wt TAP) | the Michaelis–Menten kinetics for peptide transport by wt TAP and D674A/wt are equal

Binder | 2nd/1st ratio (dimer to monomer peaks) (P36370 [1]) | Kd [2] | Kd [3] | 2nd/1st ratio (dimer to monomer peaks) (P36370 [4]) | stoichiometry N [5] | lumenal peptide concentration reached in proteoliposomes at high external peptide (for example 100 μM): trans-inhibition [6] | EC50 of lumenal peptide accumulation in proteoliposomes after 1 h at different external peptide concentrations, given as Kd of a low-affinity lumenal peptide-binding site [7] | lumenal peptide concentration reached in proteoliposomes at high external peptide (for example 100 μM): trans-inhibition [7] | Km [8]
B1 | 0.68 | 111 µM | 22.4 µM | 2.61 | 2 | – | – | – | –
B2 | 0.26 | 164 µM | 170 µM | 0.11 | – | – | – | – | –
B3 | – | – | – | – | – | < 16 µM | 10.7 µM | < 16 µM | –
B4 | – | – | – | – | – | – | – | – | 99 ± 24 µM
